Measurements: the Human Domainome abundance scans (Beltran et al. 2025)

B1: Nuclear receptor subfamily 4 group A member 2, residues 260 to 336; numbered along this chain, P43354 (parent)
chain: EGLCAVCGDNAACQHYGVRTCEGCKGFFKRTVQKNAKYVCLANKNCPVDKRRRNRCQYCRFQKCLAVGMVKEVVRTD

Variants of: B1
Assay: abundance fitness (aPCA) (normalised: wild type 0, dead -1); higher = more abundant; growth selection in yeast, the domain comes from the species named
Conditions: Homo sapiens

Abundance fitness of substitutions, site by site:
F28: L -0.15, Y 0.23, E -1.29, T -0.049, W -0.095, Q -0.484, I -0.262, R -0.75, A -0.1, V -0.017, M -0.176, C -0.483, P -1.06, H -0.114, K -0.981, N -0.707, S -0.381, D -0.747
K25: R 0.079, L 0.057, A 0.127, F -0.047, N 0.033, M 0.082, G 0.101, T -0.12, P -0.675, Q -0.019, Y -0.503, V 0.046, D -0.017, W -0.013, S -0.031, E 0.049
C13: Y -0.138, W 0.082
N35: W -0.407, H -0.13, Q -0.081, V -0.487, S -0.198, F -0.089, T -0.137, A 0.011, I -0.127, K 0.033, R -0.136, D 0.118, E 0.071, L -0.085, C 0.141, M -0.173, Y -0.139
C21: L -0.725, A -0.632, G -0.46, Q 0.041, R -0.981
L41: M 0.039, Q -0.248, A -0.025, T -0.08, K -0.167, G -0.109, S -0.072, H -0.069, E 0.064, V 0.022, R -0.064, P 0.241
E22: V -0.213, Q 0.089, K -0.067, W -0.208, L -0.067, G -0.142, Y 0.06, S -0.204, D 0.049, N 0.248, H -0.02, M 0.027, I -0.393, P -0.001, F -0.102
K34: R -0.243, S -0.051, W -0.227, V -0.037, C -0.033, G 0.05
C40: W -0.761, R -0.799, Y 0.296
Q33: R -0.252, K -0.035, L -0.049
V32: C -0.071, T 0.036, E 0.101, A 0.211, L -0.511, K -0.532, R 0.256, H -0.224
V18: H -0.387, E -0.044, P -0.11, W -0.484, C -0.263, Q -0.161, G -0.112, A 0.116, L -0.15, S -0.121, R -0.29, F -0.111
V39: Q -0.244, S 0.071, E -0.058, P 0.158, W 0.017, Y -0.309, L -0.153, A -0.107, G -0.616, R -0.055
G17: W -0.383, L -0.133, M -0.076, V -0.364, I 0.092, S -0.371, K -0.346, R -0.173, Q 0.044, P -0.841, H -0.004, E -0.116, C 0.255, T -0.097
K29: D 0.11, L 0.008, Y -0.344, G -0.178, M 0.296, W -0.253, S 0.121, C -0.239, T -0.066, I 0.214, P -0.126, H 0.071, R -0.123, Q -0.097, N -0.138, A 0.014
G26: F 0.068, V -0.191, E -0.214, D -0.062, T 0.051, K -0.352, S -0.218, M -0.27, L -0.137, C -0.138
